Assay results taken from patent publication US20250320281A1.

Legend:
[1] = biological target: HIV-1 Env of pseudovirus MGRM-F1-013 (HIV-1); assay: cell-based or functional assay
[2] = biological target: HIV-1 envelope glycoprotein (Env) of isolate MGRM-A-004, clade A (HIV-1); assay: cell-based or functional assay
[3] = biological target: HIV-1 Env of isolate CAAN.A2 (Acute), clade B, on pseudovirus (HIV-1); assay: cell-based or functional assay
[4] = biological target: HIV-1 envelope glycoprotein (Env) of isolate CAAN.A2 (HIV-1); assay: cell-based or functional assay
[5] = biological target: HIV-1 envelope glycoprotein (Env) of isolate APV_17 (HIV-1); assay: cell-based or functional assay
[6] = biological target: HIV-1 envelope glycoprotein (Env) of isolate MGRM-Chronic-B-003 (HIV-1); assay: cell-based or functional assay
[7] = biological target: HIV-1 Env of isolate 93UG077 (subtype A) (HIV-1); assay: cell-based or functional assay
[8] = biological target: HIV-1 envelope glycoprotein (Env) of isolate MGRM-Chronic-B-004 (HIV-1); assay: cell-based or functional assay
[9] = biological target: HIV-1 Env of isolate 92WR021 (subtype A) (HIV-1); assay: cell-based or functional assay
[10] = biological target: HIV-1 envelope glycoprotein (Env) of isolate MGRM-Chronic-B-002 (HIV-1); assay: cell-based or functional assay
[11] = biological target: HIV-1 envelope glycoprotein (Env) of isolate APV_6 (HIV-1); assay: cell-based or functional assay
[12] = biological target: HIV-1 envelope glycoprotein (Env) of isolate JR-FL (HIV-1); assay: cell-based or functional assay
[13] = biological target: HIV-1 envelope glycoprotein (Env) of isolate APV_13 (HIV-1); assay: cell-based or functional assay
[14] = biological target: HIV-1 envelope glycoprotein (Env) of isolate 92BR020 (HIV-1); assay: cell-based or functional assay
[15] = biological target: HIV-1 envelope glycoprotein (Env) of isolate 6535.3 (HIV-1); assay: cell-based or functional assay
[16] = biological target: HIV-1 envelope glycoprotein (Env) of isolate MGRM-Chronic-B-001 (HIV-1); assay: cell-based or functional assay
[17] = biological target: HIV-1 Env of isolate 92UG037 (subtype A) (HIV-1); assay: cell-based or functional assay
[18] = biological target: HIV-1 Env of isolate VLGCA1 (subtype A) (HIV-1); assay: cell-based or functional assay
[19] = biological target: HIV-1 Env of isolate 94 KE 105 (subtype AC) (HIV-1); assay: cell-based or functional assay
[20] = biological target: HIV-1 Env of isolate 92WR009 (subtype A) (HIV-1); assay: cell-based or functional assay
[21] = biological target: HIV-1 envelope glycoprotein (Env) of isolate MGRM-Chronic-B-008 (HIV-1); assay: cell-based or functional assay
[22] = biological target: HIV-1 Env of isolate 93WR029 (subtype A) (HIV-1); assay: cell-based or functional assay
[23] = biological target: HIV-1 Env of isolate 92WR024 (subtype A) (HIV-1); assay: cell-based or functional assay
[24] = biological target: HIV-1 Env of isolate 92WR026 (subtype A) (HIV-1); assay: cell-based or functional assay
[25] = biological target: HIV-1 Env of isolate 92WR020 (subtype A) (HIV-1); assay: cell-based or functional assay
[26] = biological target: HIV-1 Env of isolate 92RW008 (subtype A) (HIV-1); assay: cell-based or functional assay
[27] = biological target: HIV-1 envelope glycoprotein (Env) of isolate 93TH305 (HIV-1); assay: cell-based or functional assay
[28] = biological target: HIV-1 Env of isolate 92UG031 (subtype A) (HIV-1); assay: cell-based or functional assay
[29] = biological target: HIV-1 Env of isolate 93IN905 (subtype C) (HIV-1); assay: cell-based or functional assay
[30] = biological target: HIV-1 envelope glycoprotein (Env) of isolate MGRM-C-010 (HIV-1); assay: cell-based or functional assay
[31] = biological target: JR-FL gp120 ΔV1/ΔV2 (HIV-1); assay: ELISA, antigen-coated wells
[32] = biological target: HIV-1 Env of isolate 6535.3 (subtype B pseudovirus) (HIV-1); assay: cell-based or functional assay
[33] = biological target: HIV-1 NL43 Env on pseudotyped virus (HIV-1 NL43); assay: cell-based or functional assay
[34] = biological target: HIV-1 JR-CSF Env on pseudotyped virus (HIV-1 isolate JR-CSF) (UniProt P20871); assay: cell-based or functional assay
[35] = biological target: HIV-1 93IN905 Env on pseudotyped virus (HIV-1 isolate 93IN905); assay: cell-based or functional assay
[36] = biological target: HIV-1 IAVI_C22 Env on pseudotyped virus (HIV-1 isolate IAVI_C22); assay: cell-based or functional assay

4993_K13 (PGT-141) (antibody), sequence (VH): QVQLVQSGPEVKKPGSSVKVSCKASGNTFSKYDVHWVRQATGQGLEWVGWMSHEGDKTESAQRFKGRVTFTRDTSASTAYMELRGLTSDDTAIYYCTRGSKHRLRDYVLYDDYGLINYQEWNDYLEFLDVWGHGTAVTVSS
4993_K13 (PGT-141) (antibody), sequence (VL): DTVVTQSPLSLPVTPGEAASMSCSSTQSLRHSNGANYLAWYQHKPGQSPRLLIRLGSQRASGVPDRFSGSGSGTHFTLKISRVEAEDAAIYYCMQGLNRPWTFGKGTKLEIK

b12 (antibody)
IC50 (µg/ml), pseudovirus neutralization [1]: > 50 µg/mL | IC50 (µg/ml), pseudovirus neutralization [2]: > 50 µg/mL | IC50 (µg/ml), pseudovirus neutralization [3]: > 50 µg/mL

4993_K13 (PGT-141) (antibody)
IC50 (µg/mL), pseudovirus neutralization [4]: > 50 µg/mL | IC50 (µg/mL), pseudovirus neutralization [5]: 0.59 µg/mL | IC50 (µg/mL), pseudovirus neutralization [6]: 0.4 µg/mL | IC50 (µg/mL), pseudovirus neutralization [7]: > 50 µg/mL | IC50 (µg/mL), pseudovirus neutralization [8]: 0.586 µg/mL | IC50 (µg/mL), pseudovirus neutralization [9]: > 50 µg/mL | IC50 (µg/mL), pseudovirus neutralization [10]: > 50 µg/mL | IC50 (µg/mL), pseudovirus neutralization [11]: 14.2 µg/mL | IC50 (µg/mL), pseudovirus neutralization [12]: > 50 µg/mL | IC50 (µg/mL), pseudovirus neutralization [13]: > 50 µg/mL | IC50 (µg/mL), pseudovirus neutralization [14]: 20.3 µg/mL | IC50 (µg/mL), pseudovirus neutralization [15]: > 50 µg/mL | IC50 (µg/mL), pseudovirus neutralization [16]: > 50 µg/mL | IC50 (µg/mL), pseudovirus neutralization [17]: 1.28 µg/mL | IC50 (µg/mL), pseudovirus neutralization [18]: 2.07 µg/mL | IC50 (µg/mL), pseudovirus neutralization [19]: 0.204 µg/mL | IC50 (µg/mL), pseudovirus neutralization [20]: 0.022 µg/mL | IC50 (µg/mL), pseudovirus neutralization [21]: > 50 µg/mL | IC50 (µg/mL), pseudovirus neutralization [22]: 0.019 µg/mL | IC50 (µg/mL), pseudovirus neutralization [23]: 0.175 µg/mL | IC50 (µg/mL), pseudovirus neutralization [24]: 1.78 µg/mL | IC50 (µg/mL), pseudovirus neutralization [25]: > 50 µg/mL | IC50 (µg/mL), pseudovirus neutralization [26]: 0.579 µg/mL | IC50 (µg/mL), pseudovirus neutralization [27]: > 50 µg/mL | IC50 (µg/mL), pseudovirus neutralization [28]: 0.093 µg/mL

2F5 (antibody)
IC50 (µg/ml), pseudovirus neutralization [1]: 4.57 µg/mL | IC50 (µg/ml), pseudovirus neutralization [2]: 7.49 µg/mL | IC50 (µg/ml), pseudovirus neutralization [3]: 23.1 µg/mL

5136_H01 (PGT-131) (antibody)
IC50 neutralization [29]: 0.177 µg/mL | IC50 (µg/mL), pseudovirus neutralization [18]: > 50 µg/mL | IC50 (µg/mL), pseudovirus neutralization [30]: > 50 µg/mL

2G12 (antibody)
IC50 (µg/ml), pseudovirus neutralization [1]: > 50 µg/mL | IC50 (µg/ml), pseudovirus neutralization [2]: > 50 µg/mL | IC50 (µg/ml), pseudovirus neutralization [3]: > 50 µg/mL

5114_A19 (PGT-128) (antibody)
EC50 [31]: 0.3 µg/mL | IC50 neutralization [29]: 0.009 µg/mL | IC50 (µg/mL), pseudovirus neutralization [18]: 0.838 µg/mL | IC50 (µg/mL), pseudovirus neutralization [30]: > 50 µg/mL

4838_L06 (PGT-121) (antibody)
EC50 [31]: 0.2 µg/mL | IC50 (µg/mL), pseudovirus neutralization [32]: 0.005 µg/mL

1495_C14 (PGC14) (antibody)
IC50 (µg/ml), pseudovirus neutralization [1]: 6 µg/mL | Neutralizing Antibody Assay: IC50; Virus/Ab Incubation 1 hour [33]: 0.35 µg/mL | Neutralizing Antibody Assay: IC50; Virus/Ab Incubation 18 hour [33]: 0.15 µg/mL | IC50 (µg/ml), pseudovirus neutralization [2]: > 50 µg/mL | Neutralizing Antibody Assay: IC50; Virus/Ab Incubation 1 hour [34]: > 50 µg/mL | Neutralizing Antibody Assay: IC50; Virus/Ab Incubation 18 hour [34]: > 50 µg/mL | Neutralizing Antibody Assay: IC50; Virus/Ab Incubation 1 hour [35]: > 50 µg/mL | Neutralizing Antibody Assay: IC50; Virus/Ab Incubation 18 hour [35]: 0.146 µg/mL | IC50 (µg/ml), pseudovirus neutralization [3]: > 50 µg/mL | Neutralizing Antibody Assay: IC50; Virus/Ab Incubation 1 hour [36]: > 50 µg/mL | Neutralizing Antibody Assay: IC50; Virus/Ab Incubation 18 hour [36]: 13.4 µg/mL
